Where a chain is given by its changes, count along the chain named. Each block holds one binder with its values, some of them ahead of it.
Key:
[1] = target: T1, human CC chemokine receptor 4 (CCR4) (human, UniProt P51679 1-360); assay: cell-based or functional assay
T1 sequence (looked up): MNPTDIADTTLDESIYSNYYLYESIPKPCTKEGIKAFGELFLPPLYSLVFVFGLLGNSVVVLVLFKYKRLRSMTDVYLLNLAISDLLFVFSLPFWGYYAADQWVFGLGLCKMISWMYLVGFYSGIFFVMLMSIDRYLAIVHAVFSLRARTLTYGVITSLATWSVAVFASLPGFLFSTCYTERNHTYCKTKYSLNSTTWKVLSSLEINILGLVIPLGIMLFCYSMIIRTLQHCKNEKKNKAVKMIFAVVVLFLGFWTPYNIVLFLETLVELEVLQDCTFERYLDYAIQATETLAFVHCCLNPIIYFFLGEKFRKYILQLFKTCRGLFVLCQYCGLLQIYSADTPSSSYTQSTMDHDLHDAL

[2] = target: T1, human CC chemokine receptor 4 (CCR4); assay: competition in flow cytometry on CCRF-CEM cells: scFv titrated against 50 nM Alexa647-labelled MDC-SNAP; remaining MDC-SNAP signal (Alexa 647)
Description: To determine whether the anti-CCR4 antibodies from Example 1 interfere with the binding of CCR4 ligands to the receptor, competition experiments were performed. […] The SNAP-tag is derived from the 20 kDa DNA repair protein 06-alkylguanine-DNA alkyltransferase.
The CCR4+ CCRF-CEM-cells were harvested from culture flasks, washed 2 times with RPMI-1640 culture medium and aliquot 1×10^5 cells per well into V-shaped 96-well plates (Greiner Bio-One, Frickenhausen, Germany). Cells were centrifuged at 500×g for 5 minutes and the supernatant was aspirated.

[3] = target: T1, human CC chemokine receptor 4 (CCR4); assay: cell-based or functional assay; remark: listed apart in the source

B1: 208 scFv (scFv, not shown: small tags and cut ends)
scFv: QVQLVQSGAEVKKPGSSVKVSCKASGGTFSSYAMSWVRQAPGQGLEWMGGIIPIFGTVNYAQKFQGRVTMTRDTSTSTVYMELSSLRSDDTAVYYCARRGGSYFDYWGQGTLVTVSSKLSGSASAPKLEEGEFSEARVSYVLTQPPSASGTPGQSVTISCSGSTSNIGSHYVFWYQQLPGTAPRLLIYRNHQRPSGVPDRLSGSKSGTSASLAISGLRSEDEADYYCAVWDAKYRGWVFGGGTKLTVL
IC50 of inhibition of TARC-mediated Ca-Flux in CCRF-CEM cells [1]: 1.9 pM

B3: 406 scFv (scFv, not shown: small tags and cut ends)
scFv: B1 scFv with G26E, F173S
notes: Expressed in TG1 bacteria
IC50 of inhibition of TARC-mediated Ca-Flux in CCRF-CEM cells [1]: 1 pM
IC50 (read off the curve) [2]: ~100 pM

B5: 501 scFv (scFv, not shown: small tags and cut ends)
scFv: QVQLVQSGAEVKKPGSSVKVSCKASEGTFSSYAMSWVRQAPGQGLEWMGGIIPIFGTVNYAQKFQGRVTMTRDTSTSTVYMELSSLRSDDTAVYYCARRRGAKFDYWGQGTLVTVSSKLSGSASAPKLEEGEFSEARVSYVLTQQPSASGTPGQSVTISCSGSTSNIGSHYVVWYQQLPGTAPRLLIYRNHQRPSGVPDRLSGSKSGTSASLAIGGLRSEDEADYYCAVWDDTLSGWVFGGGTKLTVL
notes: Expressed in TG1 bacteria; also called scFv 501; antibody 501 (single chain form)
IC50 of inhibition of TARC-mediated Ca-Flux in CCRF-CEM cells [1]: 1 pM
IC50 (read off the curve) [2]: ~300 pM

B6: 308 scFv (scFv, not shown: small tags and cut ends)
scFv: B1 scFv with S88P
IC50 of inhibition of TARC-mediated Ca-Flux in CCRF-CEM cells [1]: 3 pM

B7: 306 scFv (scFv, not shown: small tags and cut ends)
scFv: B1 scFv with S88P, F173S
IC50 of inhibition of TARC-mediated Ca-Flux in CCRF-CEM cells [1]: 1.2 pM

Further lines, with some results ahead:

IC50 of inhibition of TARC-mediated Ca-Flux in CCRF-CEM cells [1]: 10 pM
IC50 (read off the curve) [2]: ~200 pM
B2: 803 scFv (scFv, not shown: small tags and cut ends)
scFv: B5 scFv with E26G, M34I, V58A, D89E, Q145P
notes: Expressed in TG1 bacteria; also called scFv 803; antibody 803 (single chain form)

IC50 of inhibition of TARC-mediated Ca-Flux in CCRF-CEM cells [1]: 1.2 pM
IC50 (read off the curve) [2]: ~300 pM
B4: 503 scFv (scFv, not shown: small tags and cut ends)
scFv: B5 scFv with Q145P
notes: Expressed in TG1 bacteria

ADCC on CCRF-CEM cells with human PBMCs, EC50 [3]: 315 pM
ADCC on L-428 cells with human PBMCs, EC50 [3]: 57 pM
B8: KW0761 IgG (antibody, V domains shown)
VH: EVQLVESGGDLVQPGRSLRLSCAASGFIFSNYGMSWVRQAPGKGLEWVATISSASTYSYYPDSVKGRFTISRDNAKNSLYLQMNSLRVEDTALYYCGRHSDGNFAFGYWGQGTLVTVSS
VL: DVLMTQSPLSLPVTPGEPASISCRSSRNIVHINGDTYLEWYLQKPGQSPQLLIYKVSNRFSGVPDRFSGSGSGTDFTLKISRVEAEDVGVYYCFQGSLLPWTFGQGTKVEIK
ADCC on CCRF-CEM cells, Max. Killing (%; nM IgG) [3]: 69.8 % (at 1.4 nM IgG)
ADCC on L-428 cells, Max. Killing (%; nM IgG) [3]: 84 % (at 7 nM IgG)

IC50 of inhibition of TARC-mediated Ca-Flux in CCRF-CEM cells [1]: 3 pM
B9: 601 scFv (scFv, not shown: small tags and cut ends)
scFv: QVQLVQSGAEVKKPGSSVKVSCKASGGTFSSYAMSWVRQAPGQGLEWMGGIIPIFGTVNYAQKFQGRVTMTRDTSTSTVYMELSSLRSDDTAVYYCARRRGAKFDYWGQGTLVTVSSKLSGSASAPKLEEGEFSEARVSYVLTQQPSASGTPGQSVTISCSGSTSNIGSHYVVWYQQLPGTAPRLLIYRNHQRPSGVPDRLSGSKSGTSASLAIGGLRSEDEADYYCAVWDDTLSGWVFGGGTKLTV
